# System: CCCC(=O)Oc1ccc([N+](=O)[O-])cc1
# Assay: purified protein
# Details: pH 8.0; 25.0 °C
substance,measurement,value
SfDLH (Solimonas fluminis),Km,160 µM

# Source: doi:10.1101/2025.10.30.685675v2
